Like-named read-outs stand apart in the source and are kept apart here.
Key:
huCD40(1-193) [1] = target: T1, huCD40(1-193) (human, UniProt P25942 21-193); experiment: Octet, soluble antigen
T1 construct: Soluble form used in Octet; also called human CD40; soluble human CD40

huMSLN(296-598) [2] = target: huMSLN(296-598) (human, UniProt Q13421 296-598); experiment: Octet, soluble antigen
Target sequence in this assay (Q13421 other isoform, or with tags, fused parts or gaps): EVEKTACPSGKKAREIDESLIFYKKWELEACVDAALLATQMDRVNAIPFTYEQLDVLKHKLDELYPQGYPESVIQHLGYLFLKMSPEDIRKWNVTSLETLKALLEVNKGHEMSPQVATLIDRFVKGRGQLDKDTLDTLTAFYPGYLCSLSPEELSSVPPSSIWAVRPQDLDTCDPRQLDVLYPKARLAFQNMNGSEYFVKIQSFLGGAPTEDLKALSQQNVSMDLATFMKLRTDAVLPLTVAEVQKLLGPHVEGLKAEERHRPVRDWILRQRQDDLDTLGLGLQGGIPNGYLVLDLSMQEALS

cynoCD40(1-193) [3] = target: T2, cynoCD40(1-193) (cynomolgus monkey, UniProt P25942 21-193 (human entry)); experiment: Octet, soluble antigen
T2 construct: Soluble form used in Octet; also called cynomolgus monkey CD40
T2 chain: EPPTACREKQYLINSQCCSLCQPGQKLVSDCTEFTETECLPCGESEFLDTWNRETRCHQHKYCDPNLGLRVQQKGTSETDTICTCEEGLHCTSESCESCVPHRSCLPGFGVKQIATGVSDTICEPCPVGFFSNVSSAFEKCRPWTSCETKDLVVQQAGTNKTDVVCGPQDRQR

[4] = target: human CD40 on purified human B cells (human, UniProt P25942 21-277); experiment: cell-based or functional assay
human CD40 [5] = target: T3, human CD40 (human, UniProt P25942 21-277); experiment: cell-based or functional assay
huCD40(1-193) [6] = target: T4, huCD40(1-193) (human, UniProt P25942 21-193); experiment: Octet
T4 construct: also called soluble human CD40
Procedure: (§1) A panel of mesothelin×CD40 bispecific antibodies were generated in the IgG-scFv format (Table 13) and evaluated for binding to soluble forms of human and cynomolgus monkey CD40 and human and cynomolgus monkey mesothelin using the Octet assay (Table 14). Association rate (Kon), disassociation rate (Kdis), and equilibrium binding constant (KD) were calculated. […] These bispecific antibodies were next evaluated for their ability to induce mesothelin-dependent activation of human B cells. CHO cells expressing human mesothelin were seeded into a 96 well plate. The next day varying concentrations of the mesothelin×CD40 IgG-scFv antibodies were added to the wells along with purified human B cells and the plates were incubated for an additional 48 hours. Upregulation of CD86, a marker of CD40-mediated B cell activation, was quantified on B cells by flow cytometry.

cynoCD40(1-193) [7] = target: T5, cynoCD40(1-193) (cynomolgus monkey, UniProt P25942 21-193 (human entry)); experiment: Octet
T5 construct: also called soluble cynomolgus monkey CD40
T5 chain: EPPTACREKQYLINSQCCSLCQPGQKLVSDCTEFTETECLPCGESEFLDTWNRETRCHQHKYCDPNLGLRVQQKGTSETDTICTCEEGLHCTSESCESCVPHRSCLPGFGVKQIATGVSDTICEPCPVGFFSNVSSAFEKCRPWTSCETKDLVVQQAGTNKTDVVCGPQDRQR
Procedure: as §1

cynoMSLN(296-598) = target: T6, cynoMSLN(296-598) (cynomolgus monkey); experiment: Octet
T6 chain: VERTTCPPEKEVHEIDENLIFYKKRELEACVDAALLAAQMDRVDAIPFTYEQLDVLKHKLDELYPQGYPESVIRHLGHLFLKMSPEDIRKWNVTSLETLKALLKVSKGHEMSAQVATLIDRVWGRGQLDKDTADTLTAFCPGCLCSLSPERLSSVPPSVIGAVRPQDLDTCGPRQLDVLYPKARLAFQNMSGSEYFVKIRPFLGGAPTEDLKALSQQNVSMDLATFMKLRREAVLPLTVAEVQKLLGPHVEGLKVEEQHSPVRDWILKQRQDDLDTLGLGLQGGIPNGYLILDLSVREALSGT
Procedure: as §1

huMSLN(296-598) [8] = target: T7, huMSLN(296-598) (human, UniProt Q13421 296-598); experiment: Octet
T7 construct: also called soluble human mesothelin
Procedure: as §1
T7 sequence (Q13421 other isoform, or with tags, fused parts or gaps): as the sequence (Q13421 other isoform, or with tags, fused parts or gaps) above

human CD40 [9] = target: T3, human CD40; experiment: cell-based or functional assay; remark: listed apart in the source
[10] = target: T8, soluble recombinant cynomolgus monkey mesothelin (cynomolgus monkey); experiment: Octet, soluble recombinant cyno MSLN
T8 chain: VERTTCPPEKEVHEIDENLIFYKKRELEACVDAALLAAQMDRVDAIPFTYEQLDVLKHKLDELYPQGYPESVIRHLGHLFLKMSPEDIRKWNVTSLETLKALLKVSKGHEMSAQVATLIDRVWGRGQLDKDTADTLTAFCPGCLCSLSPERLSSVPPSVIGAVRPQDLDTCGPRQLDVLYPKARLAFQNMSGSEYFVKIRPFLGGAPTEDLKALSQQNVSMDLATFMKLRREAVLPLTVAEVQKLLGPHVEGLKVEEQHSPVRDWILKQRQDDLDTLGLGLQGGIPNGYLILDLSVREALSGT

Row | Binder | Kd (huCD40(1-193) [1]) [nM] | koff (huCD40(1-193) [1]) [s⁻¹] | kon (huCD40(1-193) [1]) [M⁻¹ s⁻¹] | Kd (huMSLN(296-598) [2]) [nM] | koff (huMSLN(296-598) [2]) [s⁻¹] | kon (huMSLN(296-598) [2]) [M⁻¹ s⁻¹] | Kd (cynoCD40(1-193) [3]) [nM] | koff (cynoCD40(1-193) [3]) [s⁻¹] | kon (cynoCD40(1-193) [3]) [M⁻¹ s⁻¹] | EC50 (nM), CD86 upregulation on human B cells in the presence of CHO cells expressing human mesothelin [4] [nM] | also measured
1 | Anti-CD40xMSLN IgG-Fab molecule 5972-1 (bispecific antibody) chain 1: QVQLVESGGGLVKPGGSLRLSCAASGFTFSDYYMSWIRQAPGKGLEWISYISSSESIIYYVDSVKGRFTISRDNAKNSLYLQMNSLRAEDTAVYYCARDVGSHFDYWGQGTLVTVSS chain 2: DIQMTQSPSSVSASVGDRVTITCRASQDISRWLAWYQQKPGKAPKLLISAASRLQSGVPSRFSGSGSGTDFTLTISSLQPEDFAIYYCQQAKSFPRTFGQGTKVEIKR chain 3: QVQLQQSGPGLVKPSQTLSLTCAISGDSVSSSRTAWNWIRQSPSRGLEWLGRTYYRSKWYHDYSVSVKSRITIDPDTSKNQFSLQLNSVTPEDTAVYYCARGAAPFDYWGQGTLVTVSS chain 4: EIVLTQSPGTLSLSPGERATLSCRASQSVSSNYLAWYQQKPGQAPRALIYAASNRAAGISDRFSGSGSGTDFTLTISRLEPEDFAVYFCQQYGSSPLTFGGGTKVEIKR | 4 | 0.000531 | 134000 | 0.5 | 0.00027 | 568000 | 1.7 | 0.000137 | 80600 | 0.007 | 
2 | 6052-2 (bispecific antibody, IgG-scFv: IgG (CD40) 36F3, scFv (MSLN) 6F4; also called 6052-3) heavy: not shown light: EIVLTQSPGTLSLSPGERATLSCRASQSVSSNYLAWYQQKPGQAPRALIYAASNRAAGISDRFSGSGSGTDFTLTISRLEPEDFAVYFCQQYGSSPLTFGGGTKVEIKRTVAAPSVFIFPPSDEQLKSGTASVVCLLNNFYPREAKVQWKVDNALQSGNSQESVTEQDSKDSTYSLSSTLTLSKADYEKHKVYACEVTHQGLSSPVTKSFNRGEC |  |  |  |  |  |  |  |  |  |  | EC50 (nM), CD86 upregulation on human B cells with huMSLN-CHO cells (human CD40 [5]): 0.00316 nM; Kd (huCD40(1-193) [6]): 2.5 nM; koff (huCD40(1-193) [6]): 0.000556 s⁻¹; kon (huCD40(1-193) [6]): 218000 M⁻¹ s⁻¹; Kd (cynoCD40(1-193) [7]): 3.3 nM; koff (cynoCD40(1-193) [7]): 0.00035 s⁻¹; kon (cynoCD40(1-193) [7]): 105000 M⁻¹ s⁻¹; Kd (cynoMSLN(296-598)): 19 nM; koff (cynoMSLN(296-598)): 0.00519 s⁻¹; kon (cynoMSLN(296-598)): 269000 M⁻¹ s⁻¹; Kd (huMSLN(296-598) [8]): 0.7 nM; koff (huMSLN(296-598) [8]): 0.000533 s⁻¹; kon (huMSLN(296-598) [8]): 713000 M⁻¹ s⁻¹; EC50 (nM), CD86 upregulation on human B cells with huMSLN-CHO cells (human CD40 [9]): 0.00445 nM
3 | anti-mesothelin antibody 7G11 (antibody, V domains shown) VH: EVQLVESGGGLIQPGGSLRLSCAVSGFTVSSKFMTWVRQAPGKGLEWVSVIYSGGKTYYADSVKGRFTISRDNSKNTLYLQMNSLRAEDTAVYYCARDSGGWGYFDYWGQGTLVTVSS VL: not shown |  |  |  |  |  |  |  |  |  |  | Kd [10]: 6.4 nM; koff [10]: 0.00188 s⁻¹; kon [10]: 294000 M⁻¹ s⁻¹

More lines, main results first:

Row | Kd (huCD40(1-193) [1]) [nM] | koff (huCD40(1-193) [1]) [s⁻¹] | kon (huCD40(1-193) [1]) [M⁻¹ s⁻¹] | Kd (huMSLN(296-598) [2]) [nM] | koff (huMSLN(296-598) [2]) [s⁻¹] | kon (huMSLN(296-598) [2]) [M⁻¹ s⁻¹] | Kd (cynoCD40(1-193) [3]) [nM] | koff (cynoCD40(1-193) [3]) [s⁻¹] | kon (cynoCD40(1-193) [3]) [M⁻¹ s⁻¹] | EC50 (nM), CD86 upregulation on human B cells in the presence of CHO cells expressing human mesothelin [4] [nM] | Binder | also measured
4 | 0.6 | 0.000325 | 541000 | 0.5 | 0.000223 | 451000 | 0.6 | 0.000404 | 669000 | 0.006 | Anti-CD40xMSLN IgG-Fab molecule 5973-1 (bispecific antibody) chain 1: QVQLVESGGGLVKPGGSLRLSCAASGFTFSDYYMSWIRQAPGKGLEWISYISSSESIIYYVDSVKGRFTISRDNAKNSLYLQMNSLRAEDTAVYYCARDVGSHFDYWGQGTLVTVSS chain 2: DIQMTQSPSSVSASVGDRVTITCRASQDISRWLAWYQQKPGKAPKLLISAASRLQSGVPSRFSGSGSGTDFTLTISSLQPEDFAIYYCQQAKSFPRTFGQGTKVEIKR chain 3: QVQLVESGGGLVKPGGSLRLSCAASEFTFSDYYMSWIRQAPGKGLEWVSYISRSGDTIYYADSVKGRFTISRDNAKNSLYLQMNGLRAEDTAVYYCARDLAAGATGGLDCWGQGTLVTVSS chain 4: SYELTQPPSVSVSPGQTASITCSGERLGNKYICWYQQKPGQSPVLVIYQDFKRPSGIPERFSGSNSGITATLTISGTQAMDEADYYCQAWDSRTVVFGGGTKLTVLG | 
5 | 0.7 | 0.000423 | 600000 | 1 | 0.000439 | 424000 | 0.7 | 0.000526 | 752000 | 0.003 | Anti-CD40xMSLN IgG-Fab molecule 5987-1 (bispecific antibody) chain 1: QVQLVQSGAEVTKPGASVKVSCKASGYTFAGYYMHWVRQAPGQGLEWMGWINPHSGGTNYAQKFQDRVTMTRDTSINTAYMELSRLRSDDTAVYYCARERISMVRGVGHNWFAPWGQGTLVTVSS chain 2: DIQMTQSPSSLSASVGDRVTITCRASQDISNNLAWFQQKPGKPPKSLMYAASSLHSGVPSTFSGSGSGTDFTFTISSLQPEDFATYYCQQYNSYPLTFGGGTKVEIRR chain 3: QVQLVESGGGLVKPGGSLRLSCAASGFTFSDYYMSWIRQAPGKGLEWISYISSSESIIYYVDSVKGRFTISRDNAKNSLYLQMNSLRAEDTAVYYCARDVGSHFDYWGQGTLVTVSS chain 4: DIQMTQSPSSVSASVGDRVTITCRASQDISRWLAWYQQKPGKAPKLLISAASRLQSGVPSRFSGSGSGTDFTLTISSLQPEDFAIYYCQQAKSFPRTFGQGTKVEIKR | 
